Assay results published in patent US20230074436A1 (DENALI THERAPEUTICS, published 2023).
No end group written: not given here. *: point of attachment. Biotin = O=C1N[C@H]2[C@H](CS[C@H]2CCCCC(=O)*)N1

Columns and labels:
[1] = biological target: T1, human alpha-synuclein monomer (human, UniProt P37840 1-140); assay: direct ELISA on coated antigen;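 note: plates coated with recombinant human, mouse or rat alpha-synuclein, purified antibody titrated 10 µg/mL down to 0.6 ng/mL for 1 h, bound antibody detected by anti-rat HRP with TMB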
rat alpha-synuclein = rat alpha-synuclein (rat, UniProt P37377 1-140); assay: direct ELISA on coated antigen;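 note: plates coated with recombinant human, mouse or rat alpha-synuclein, purified antibody titrated 10 µg/mL down to 0.6 ng/mL for 1 h, bound antibody detected by anti-rat HRP with TMB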
[2] = biological target: T1, human alpha-synuclein monomer; assay: ELISA, coated human alpha-synuclein
asyn_113-127 [3] = biological target: T2, asyn_113-127 (human); assay: Ala-scan peptide ELISA, row C, run 1
T2 construct: also called pep1
T2 peptide: Biotin-LEDMPVDPDNEAYEM

asyn_113-127_113A [4] = biological target: T3, asyn_113-127_113A (human); assay: Ala-scan peptide ELISA, row C, run 1
T3 construct: substitution is already in the entry; also called pep2
T3 peptide: Biotin-AEDMPVDPDNEAYEM

asyn_113-127_116A [5] = biological target: T4, asyn_113-127_116A (human); assay: Ala-scan peptide ELISA, row C, run 1
T4 construct: substitution is already in the entry; also called pep5
T4 peptide: Biotin-LEDAPVDPDNEAYEM

asyn_113-127_117A [6] = biological target: T5, asyn_113-127_117A (human); assay: Ala-scan peptide ELISA, row C, run 1
T5 construct: substitution is already in the entry; also called pep6
T5 peptide: Biotin-LEDMAVDPDNEAYEM

asyn_113-127_118A [7] = biological target: T6, asyn_113-127_118A (human); assay: Ala-scan peptide ELISA, row C, run 1
T6 construct: substitution is already in the entry; also called pep7
T6 peptide: Biotin-LEDMPADPDNEAYEM

asyn_113-127_123A [8] = biological target: T7, asyn_113-127_123A (human); assay: Ala-scan peptide ELISA, row C, run 1
T7 construct: substitution is already in the entry; also called pep12
T7 peptide: Biotin-LEDMPVDPDNAAYEM

asyn_113-127_127A [9] = biological target: T8, asyn_113-127_127A (human); assay: Ala-scan peptide ELISA, row C, run 1
T8 construct: substitution is already in the entry; also called pep17
T8 peptide: Biotin-LEDMPVDPDNEAYEA

asyn_113-127 [10] = biological target: T2, asyn_113-127; assay: Ala-scan peptide ELISA, row C, run 2
asyn_113-127_113A [11] = biological target: T3, asyn_113-127_113A; assay: Ala-scan peptide ELISA, row C, run 2
asyn_113-127_114A = biological target: T9, asyn_113-127_114A (human); assay: Ala-scan peptide ELISA, row C, run 2
T9 construct: substitution is already in the entry; also called pep3
T9 peptide: Biotin-LADMPVDPDNEAYEM

asyn_113-127_115A [12] = biological target: T10, asyn_113-127_115A (human); assay: Ala-scan peptide ELISA, row C, run 2
T10 construct: substitution is already in the entry; also called pep4
T10 peptide: Biotin-LEAMPVDPDNEAYEM

asyn_113-127_116A [13] = biological target: T4, asyn_113-127_116A; assay: Ala-scan peptide ELISA, row C, run 2
asyn_113-127_117A [14] = biological target: T5, asyn_113-127_117A; assay: Ala-scan peptide ELISA, row C, run 2
asyn_113-127_118A [15] = biological target: T6, asyn_113-127_118A; assay: Ala-scan peptide ELISA, row C, run 2
asyn_113-127_119A = biological target: T11, asyn_113-127_119A (human); assay: Ala-scan peptide ELISA, row C, run 2
T11 construct: substitution is already in the entry; also called pep8
T11 peptide: Biotin-LEDMPVAPDNEAYEM

asyn_113-127_120A [16] = biological target: T12, asyn_113-127_120A (human); assay: Ala-scan peptide ELISA, row C, run 2
T12 construct: substitution is already in the entry; also called pep9
T12 peptide: Biotin-LEDMPVDADNEAYEM

asyn_113-127_121A = biological target: T13, asyn_113-127_121A (human); assay: Ala-scan peptide ELISA, row C, run 2
T13 construct: substitution is already in the entry; also called pep10
T13 peptide: Biotin-LEDMPVDPANEAYEM

asyn_113-127_122A = biological target: T14, asyn_113-127_122A (human); assay: Ala-scan peptide ELISA, row C, run 2
T14 construct: substitution is already in the entry; also called pep11
T14 peptide: Biotin-LEDMPVDPDAEAYEM

asyn_113-127_123A [17] = biological target: T7, asyn_113-127_123A; assay: Ala-scan peptide ELISA, row C, run 2
asyn_113-127_124G = biological target: T15, asyn_113-127_124G (human); assay: Ala-scan peptide ELISA, row C, run 2
T15 construct: substitution is already in the entry; also called pep13
T15 peptide: Biotin-LEDMPVDPDNEGYEM

asyn_113-127_124P = biological target: T16, asyn_113-127_124P (human); assay: Ala-scan peptide ELISA, row C, run 2
T16 construct: substitution is already in the entry; also called pep14
T16 peptide: Biotin-LEDMPVDPDNEPYEM

asyn_113-127_125A = biological target: T17, asyn_113-127_125A (human); assay: Ala-scan peptide ELISA, row C, run 2
T17 construct: substitution is already in the entry; also called pep15
T17 peptide: Biotin-LEDMPVDPDNEAAEM

asyn_113-127_126A = biological target: T18, asyn_113-127_126A (human); assay: Ala-scan peptide ELISA, row C, run 2
T18 construct: substitution is already in the entry; also called pep16
T18 peptide: Biotin-LEDMPVDPDNEAYAM

asyn_113-127_127A [18] = biological target: T8, asyn_113-127_127A; assay: Ala-scan peptide ELISA, row C, run 2
[19] = biological target: biotinylated human alpha-synuclein (human, UniProt P37840 1-140); assay: Ala-scan peptide ELISA, row C, run 2
asyn_113-127 [20] = biological target: T2, asyn_113-127; assay: Ala-scan peptide ELISA, row F, run 1
asyn_113-127_113A [21] = biological target: T3, asyn_113-127_113A; assay: Ala-scan peptide ELISA, row F, run 1
asyn_113-127_115A [22] = biological target: T10, asyn_113-127_115A; assay: Ala-scan peptide ELISA, row F, run 1
asyn_113-127_120A [23] = biological target: T12, asyn_113-127_120A; assay: Ala-scan peptide ELISA, row F, run 1
[24] = biological target: human alpha-synuclein pre-formed fibrils (human, UniProt P37840 1-140); assay: competition ELISA: fibrils titrated in solution against 0.6 nM antibody, free antibody read on aSyn-coated plate
[25] = biological target: human alpha-synuclein oligomers (human, UniProt P37840 1-140); assay: competition ELISA: oligomers titrated in solution against 0.6 nM antibody, free antibody read on aSyn-coated plate

- Bmax (O.D. at 450 nm) [1]: 0.83 OD
- EC50 [1]: 0.18 nM
- Bmax (O.D. at 450 nm) (rat alpha-synuclein): 0.2 OD
- EC50 (rat alpha-synuclein): 1.5 nM
- antibody concentration at which ELISA is positive [2]: < 40 ng/mL
- A450 (asyn_113-127 [3]): 0.48 OD
- A450 (asyn_113-127_113A [4]): 0.498 OD
- A450 (asyn_113-127_116A [5]): 0.48 OD
- A450 (asyn_113-127_117A [6]): 0.494 OD
- A450 (asyn_113-127_118A [7]): 0.403 OD
- A450 (asyn_113-127_123A [8]): 0.476 OD
- A450 (asyn_113-127_127A [9]): 0.379 OD
- A450 (asyn_113-127 [10]): 0.307 OD
- A450 (asyn_113-127_113A [11]): 0.377 OD
- A450 (asyn_113-127_114A): 0.367 OD
- A450 (asyn_113-127_115A [12]): 0.306 OD
- A450 (asyn_113-127_116A [13]): 0.393 OD
- A450 (asyn_113-127_117A [14]): 0.441 OD
- A450 (asyn_113-127_118A [15]): 0.44 OD
- A450 (asyn_113-127_119A): 0.046 OD
- A450 (asyn_113-127_120A [16]): 0.223 OD
- A450 (asyn_113-127_121A): 0.281 OD
- A450 (asyn_113-127_122A): 0.051 OD
- A450 (asyn_113-127_123A [17]): 0.377 OD
- A450 (asyn_113-127_124G): 0.295 OD
- A450 (asyn_113-127_124P): 0.055 OD
- A450 (asyn_113-127_125A): 0.052 OD
- A450 (asyn_113-127_126A): 0.369 OD
- A450 (asyn_113-127_127A [18]): 0.443 OD
- A450 [19]: 0.976 OD
- A450 (asyn_113-127 [20]): 0.149 OD
- A450 (asyn_113-127_113A [21]): 0.151 OD
- A450 (asyn_113-127_115A [22]): 0.089 OD
- A450 (asyn_113-127_120A [23]): 0.132 OD
- IC50 [24]: 1.73 nM
- IC50 [25]: 5.38 nM
B1: 20H4 (antibody, rat IgG2b, V domains shown)
VH: AVQLVESGGGLVQPKESLKISCAASGFTFSNAAMYWVRQAPGKGLELLARIRTKPNNYATYHADSVKGRFTISRDDSQSMVYLHMGNLKTEDTAMYYCTADMATGDYWGPGVMVTVSS
VL: DIQMTQSPPVLSVSVGDRVTLSCKASQNINKNLDWYQQKHGEAPKPLIYSTNNLQTGVPSRFSGSGSGTDYTLTISSLQPEDVATYYCYQYKSAWTFGGGTKLELR
notes: also called clone 20H4; rat 20H4
